Measured values taken from the PETadex activity labels (doi:10.1021/acsomega.4c04843).
Where a chain is given by its changes, count along the chain named.

B1: unnamed (protein)
chain: MFRFHIVSALLTLFIAVPSQAHDVGQREIKISGAEPGRNLEVSVWYPAAIDGKATLIGDNIIFKGAPAVIDATPEKGSFPLLVMSHGSGGRAQGMAWLATELVKAGIIVAAPNHPGTTSGDSTPQDTPKIWQRTGDLSAVIDTMTTDPAWSGIIDKNKISVLGFSLGGAAAMEIAGARANLEAYARYCDTYGKWDCAWYAGGIGYRDDKQIKVDKVDLRSVDKSRFEQSNLDRRIASAIMIDPGLAQAYDAQSLASISIPMSFINLGEVETIPTGVVADKLASITPQGTYVTVAGATHFSFLPECKKGAADRLKSAGEVDPICSDDARRPRADIHADITKLVLKALQSMPKT
B2: unnamed (protein)
chain: B1 chain with L166M, F299I
B3: unnamed (protein)
chain: B1 chain with L166M, F299W
B4: unnamed (protein)
chain: B1 chain with L166M, A294D
B5: unnamed (protein)
chain: MSNPYQRGPNPTRSALTADGPFSVATYTVSRLSVSGFGGGVIYYPTGTSLTFGGIAMSPGYTADASSLAWLGRRLASHGFVVLVINTNSRFDGPDSRASQLSAALNYLRTSSPSAVRARLDANRLAVAGHSMGGGGTLRIAEQNPSLKAAVPLTPWHTDKTFNTSVPVLIVGAEADTVAPVSQHAIPFYQNLPSTTPKVYVELCNASHIAPNSNNAAISVYTISWMKLWVDNDTRYRQFLCNVNDPALCDFRTNNRHCQLEHHHHHH

Substrate: pNPB
Assay: Proxy for plastic degradation [p-nitrophenol (pNP) release]
Settings: pH 7.4; 37 °C

B1 was tested, and the “Proxy for plastic degradation” value was 255 U/mL.

Same assay, conditions: pH 7.4; 42 °C

With B1 the “Proxy for plastic degradation” value was 330 U/mL.

Substrate: PET
Assay: Proxy for plastic degradation [Released monomer concentration (HPLC/LC-MS) (TPA)]
Settings: pH 8

Compared with B1, B2 is higher in “Proxy for plastic degradation” value: 0.8 mM/mg for the first, 1.5 mM/mg for the second.

Going from B3 to B4, the “Proxy for plastic degradation” value rises from 2.3 mM/mg to 2.6 mM/mg.

For B5, the “Proxy for plastic degradation” value was 3 mM/mg.
